Assay results from patent US20030171273, “Novel transcription factor, BP1” (published 2003).

Biological target: beta-galactosidase (UniProt P00722 P00722:2-1024)
Assay: EMSA; data not shown; negative control protein
Conditions: tags: pure protein, chain copies: 4, label: 32P
Procedure: 11:1475-1489). Protein extracts from lysogens were prepared as described (see, for example, Cowell, I. G. and H. C. Hurst. 199. Cloning transcription factors from a cDNA expression library, p.120-122. In D. S. Latchman (ed.), Transcription factors: a practical approach. IRL Press, New York). Competitors were pre-incubated with nuclear extract for 20 minutes prior to addition of the probe. Oligonucleotides sequences of probes and competitors for EMSA analyses are shown below.
To verify that the cDNA encoded a protein with the expected binding specificities of BP1, namely, the ability to bind to Silencers I and II upstream of the β-globin gene and to a sequence −530 bp upstream of the δ-globin gene (see, for example, Berg, P. E., S. Abhyankar, and M. Chase. 1994. The high mobility group protein HMG-I(Y) binds to a silencer DNA sequence upstream of the human β-globin gene. Blood 84 Suppl 1:262a), an EMSA competition assay was performed. The putative BP1 protein, fused to β-galactosidase, was expressed from a λ lysogen, as described above. This fusion protein was partially purified and incubated with the Silencer II probe used for screening the library, resulting in a single shifted band, indicated by the arrow (FIG. 2, lane 1). The band at the top marks the position of the wells, and the band at the bottom contains the unshifted probe. […]

beta-galactosidase, sequence (P00722 2-1024, one chain of several): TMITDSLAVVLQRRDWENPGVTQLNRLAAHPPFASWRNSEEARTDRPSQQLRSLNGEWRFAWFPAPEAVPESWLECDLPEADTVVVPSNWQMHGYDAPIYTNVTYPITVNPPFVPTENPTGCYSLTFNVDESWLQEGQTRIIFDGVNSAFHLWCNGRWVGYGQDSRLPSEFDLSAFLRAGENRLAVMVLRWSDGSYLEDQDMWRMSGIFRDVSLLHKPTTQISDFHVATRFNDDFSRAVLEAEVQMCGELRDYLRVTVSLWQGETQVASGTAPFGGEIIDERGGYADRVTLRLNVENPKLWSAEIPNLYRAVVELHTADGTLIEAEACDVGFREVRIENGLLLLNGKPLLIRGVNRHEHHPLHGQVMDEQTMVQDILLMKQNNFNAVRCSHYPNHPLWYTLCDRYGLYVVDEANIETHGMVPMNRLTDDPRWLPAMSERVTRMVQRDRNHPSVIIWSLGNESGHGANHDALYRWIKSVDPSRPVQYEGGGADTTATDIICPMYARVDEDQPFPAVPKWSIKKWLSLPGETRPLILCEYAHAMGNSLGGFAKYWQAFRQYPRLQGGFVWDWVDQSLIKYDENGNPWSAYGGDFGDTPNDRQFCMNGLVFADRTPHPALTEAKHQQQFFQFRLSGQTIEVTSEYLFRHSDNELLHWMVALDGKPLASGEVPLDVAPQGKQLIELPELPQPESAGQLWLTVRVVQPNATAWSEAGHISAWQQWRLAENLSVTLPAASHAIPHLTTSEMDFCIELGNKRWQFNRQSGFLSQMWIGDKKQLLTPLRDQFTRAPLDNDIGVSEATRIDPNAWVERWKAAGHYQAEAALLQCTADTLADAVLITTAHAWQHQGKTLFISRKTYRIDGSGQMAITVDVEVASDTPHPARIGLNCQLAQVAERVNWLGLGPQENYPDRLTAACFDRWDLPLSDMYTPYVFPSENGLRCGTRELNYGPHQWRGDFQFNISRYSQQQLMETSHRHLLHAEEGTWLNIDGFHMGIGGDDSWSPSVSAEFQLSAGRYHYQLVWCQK

B1: -300 beta (Silencer II) (dsDNA)
DNA 1: TTCTTATTTGTGTAATAAGAAAATTGGGAAAACGATCTTCAATATGCTTACCAAGCTG
DNA 2: CAGCTTGGTAAGCATATTGAAGATCGTTTTCCCAATTTTCTTATTACACAAATAAGAA
B1: no binding.
